Measured values published in a protein production outcome set (Wang et al. 2014).

Experiment: label from the status in PepcDB records
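Also: failed if final PepcDB status was selected cloned or expressed and not failed if soluble or beyond.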

Row | Sequence | protein production
1 | MTIQQWLFSFKGRIGRRDFWIWIGLWFAGMLVLFSLAGKNLLDIQTAAFCLVCLLWPTAAVTVKRLHDRGRSGAWAFLMIVAWMLLAGNWAILPGVWQWAVGRFVPTLILVMMLIDLGAFVGTQGENKYGKDTQDVKYKADNKSSN | failed
2 | MTTDTGELVRTNQGTSSEVSSETGTAVQTLSVLYGSQTGNAEFLASKIVDKANGQGYAAELMSLDMLTPQEAARKDRLLIVTATHDNGHMPDNAQPFWDQLQSAGSDLFKDVPFAVLAIGDSMYEDFCKAGSDLDERLGKLGGKRILDRLDCDVDYDLTSGKWIRGMLETFKTVVPKKRDNNPEDSTVPGANPAEQPKGTRREPDTATVVEARLLSAPESEKEVWHYELEVSGDSRNYRPGDSLAVIPTNNIELVEDLLGFLGLAGSEVFGEDGKTVRETLQNDYELRLPHLGIVAWLVENLAPDHPVRNLVESGDRNALEDWLWGRDMLDVLQETRTTDVDPGEFLSMLRPLQHRSYSIASSPLADGDRVHLTVSTVQYETAGRRHSGACSGFLQSAAQTKTTIKVFPLPAHEFHLPHDNSADVIMVGPGVGVAPFRGFLRDREVSQARGRNWLFFGDRHEKPSWLYQEEMEELQSNGVLNRLSVAFSRDQQGKVYVQDRIREEGDGIFAWLSGGASVYVCGGKQIAPDIDEALLAVLRSHGAMTPEKAHDYLQSLKSEGRYVKDVY | failed
3 | MASNSSSCPTPGGGHLNGYPVPPYAFFFPPMLGGLSPPGALTTLQHQLPVSGYSTPSPATIETQSSSSEEIVPSPPSPPPLPRIYKPCFVCQDKSSGYHYGVSACEGCKGFFRRSIQKNMVYTCHRDKNCIINKVTRNRCQYCRLQKCFEVGMSKESVRNDRNKKKKEVPKPECSESYTLTPEVGELIEKVRKAHQETFPALCQLGKYTTNNSSEQRVSLDIDLWDKFSELSTKCIIKTVEFAKQLPGFTTLTIADQITLLKAACLDILILRICTRYTPEQDTMTFSDGLTLNRTQMHNAGFGPLTDLVFAFANQLLPLEMDDAETGLLSAICLICGDRQDLEQPDRVDMLQEPLLEALKVYVRKRRPSRPHMFPKMLMKITDLRSISAKGAERVITLKMEIPGSMPPLIQEMLENSEGLDTLSGQPGGGGRDGGGLAPPPGSCSPSLSPSSNRSSPATHSP | not failed
4 | MITVVGTGTGAPLSADAARALAGAGLVVGGRRHLAAAALPDGAERIVLGPLAPALDAIEAALEKQRRVVVLASGDPGFFGIVRALAERFGAERLDVRPGVSSVATAFARLGLPWDDAVVVSAHGRDLRTALNVCRSRPKVAVLTGPGAGPAELGAALAHGFGARVLVVASALGDPEHERVERVTPAEAAARDWGTAVSVVLCLDASRALAPVRTVAGPPAGPARWALEEGDFAHRDSMITKFEVRALALARLGPRLGDLVWDVGAGSGSVAVECARLGAAVTAVEKTLDGVERIHANARAHGVDVHVVHGAAPDALTALPDPDAVFIGGGGRELPALVTACARRARRTVVVAMAALDRVPAVREALTGAGFGCDGVLLQSSRLAPLPGDVTRLAATNPVFLLWGARPPARTEGALQ | failed
5 | MIIMVTEVDVLVIGAGPAGSTAAKHAALGGADVLLIDKKSEIGAPKRCAEGVSIGGLESLGIEPNPRWITKKLDGVRMVSPNGTDVWLTSDKVELPEAGYILERKVFDKFMAMDAARAGSRIMVKTIATGMERTDDGYLVSAECMGEKFEIKARIVIAADGPESRVARWAGLNTATRPKDMESAAQFEMVGVEMEDNNCIEFYFGSVAPGGYALDIPEGDDIANVGLGVLSTETDKSAYEHLLEFVESCPATRNAQPVELNIGGDPVGGMPKKLVADSLMVVGDAAGQVNPLTGGGIISGMKGGMLAGQVAAAAVSEGDVTARRLGEYERLCREEIGDEISKYLKVKEYLLTLSDSELDSIAEAFQDVEFEKVSTTELVKKLIKVSPKALLKLGKLFLEHHHHHH | failed
6 | MLREAEVVVLGAGVAGLTLARLLWERGRKVLVVAEALGEASRPPVALVNPLRGRRFTLAEEGERALAAALAFYGRFVPLHLGVFRPVPEEDRPKVAGRLSRLKHRWEKEGVLLEEAFWLEPRPLLARLAEGLPLLRGRVLAWEPPWLVLEGGGRVRGEVLVYAGGGRGAHLLGLEGRHVPGLVLTLLDYFPRAVSYRVYLAGAALGGSYLPGEEGYRLPPPTEGEVEWLLQGAEALVGYRPRVASLWRGVRFRLSSFLFPVEGGFALTGFGSTGFLYAPLLAERLAERLLEHHHHHH | failed
7 | MKLEERIKSKITILVFIAILMYFLLNYGNDVRGIINNIYSIFFPFILGGCIAFILNIPVTFFSKKLLNCKIKFIGKVVRKYNISISIVASCILIIGIFALISAIIIPNIIQTIKILPNAFDNSITAFQKFVNENSWMSKNVTSLVNNLNIDWNGILNKVKITIITGASSVFMSTLGAATTFASTAIEFVLSFIFSIYILAQKNKLGTQVKMVLYAFFKKQKVDSALEVLKLTSNTFSNFITGQCTVSIILGVMFFIVMTILKLPYAIEVSIIIAFFSVIPMIGSIIGFVLSVLLLLIFNPIKAGVFVFVFLAIKQVEDNFIYPKIVGNSVGLPSILVLVAITLGGKVLGVPGMIMSIPLFSVAYVLLRKEVYTRLEKKALKVE | failed
8 | METALVSIIMPMYNAGKFLSKSIESVLEQTYQNWELLLIDDGSKDDSIDIALAFMEKDSRIFLLKNEQNMGIAKTRNKGIEASKGQYIAFLDSDDLWLPNKLEVQVKWMEEKKLLFTCSSYFVCNENGNITHERNFSEGPQTYQDLLKTNTIGCLTVVVESNLLKRHLMPDLKHEDYATWLNILKEINTVYFINEKLAIYRKLTTSTSSNKWNTISWVWKILRQNEQFSVIKSSFYLMRFLFYTTFKYAKNELEHHHHHH | not failed
9 | MNPIPADVAAVVLAGGVGRRFGRPKALAMMDGISLVERAVEALSSGPADVYVSVSPALERPVARLVGSRRVIVDLVEQAPCEGPLRAFLTAASTLVSYSNLVFMPVDAPWASWRDLEPIYNASKAIGSGASYFSGEGIVHPLFLAARRKSLLTAAWTACWGRAEKRASAILRSLDPLILLGSSETRSPLALATVNTPQDLWRPSRVPAPAEGYILLEGHSILYKISSTMNSYYSALALEAEYKLYRRLGLLRLASHVLKDAAALNVSTSLIQQESMAGGLGLEHHHHHH | failed
10 | MAANGVRRALQASSSSGKILFGRSSAATSASKIGKSAGIAFGNGSSSSTRPSLRRLTFSRVPVELSAGISLIPLHSVTASALLTSLLSLSNQNWSCLSEGKFFTCVHDLCLELKLILNFCFQTRSKCSLNW | failed
11 | MSTDVSSAENEGGATVRTARVPKYYRLKKHLLDMTRTQTPGTPVPPERTLAAEFDTSRTTVRQALQELVVEGRLERIQGKGTFVAKPKVSQALQLTSYTEDMRAQGLEPTSQLLDIGYITADDRLAGLLDITAGGRVLRIERLRMANGEPMAIETTHLSAKRFPALRRSLVKYTSLYTALAEVYDVHLAEAEETIETSLATPREAGLLGTDVGLPMLMLSRHSQDRTGQPVEWVRSVYRGDRYKFVARLKRPQD | not failed
12 | MIQMDGGDRLRVTLLDRMSTVESSRSCLTLEAILMADKNRTSPQILSPPPSRSQSNRSLVEVMQREHRHSRDKTAWKSLREKLRLKRNGSVWISSNSIPSLDTPIPNRDNVSHQLGFLLSNSGNVTEEASSVEGRIRLGAVLAEERALSAREEETPAEREVEPARMSLMELLEENEGQMSFVSVDGEAEEEVAAVTAAEISCCVCMVRSKGAAFIPCGHTFCRLCSRELWVQRGNCPLCNTTILEVLDLF | failed
13 | MTPDDQLSAFLGEQPATSRADLFTAVVMQKIERRAFLRDVAAAGGWAAVVGLVAWACAPVLNVLIGALAPGLAPAAAALALVAATLLVSSPSVRRRLGLAAV | failed
14 | MFISVLDLFKIGIGPSSSHTMGPMTAANVFRDHVDQLVSQTPDDLNYRVYCVLKGSLAFTGRGHATDRAVALGLHGHSPVSLAGEDVNALTAKLWATDTLQLTSGREIGFNPEDDIVFDKSDPLPQHPNGMIFYLLDEEGKKILSETFFSIGGGFICTLAEINQ | not failed
15 | MASSSKNITYPPRLYPEGLLKSSLCVFIKFADAKYIWAAHTVHYFLTNQLSVNNFHEIMSVIDGWPIRFSLTEFVDITSLNCDLLDKSTTCEIGHYEFWNEMGVGTYDGPLFIELKHVMDISKEWSYEKRLMVGRLCLLSVGVHGIYHGCRIPLSSAKLVLDPKAFEKYLWGRVAFESLVISVKIVDYKKDICDSWMCPRLVDLDL | failed
16 | MRTIYVIGIGTGSPEFLTLQAISGLRHAQAIVALDKGEQKSDLLALRQKIVDTHAPGTPIYAVTDPERDRNPDNYEEEVRRWHAERAHLLASTIRERTPDDGAVAFLVWGDPSLYDSTLRIIEHMRNLEDLHADVKVIPGITAVQVLTAEHGILINRIGEAIHITTGRNLPETSAKDRRNCVVMLDGKTAWQDVATEHTYMWWGAFLGTEQQVLRKGYVHEIGAQVAELKQQLRTEHGWIMDTYLLRELD | not failed
17 | MNPLARFLALAGFTVALASCQMFTPPEVQESGFQPSDRPITVDNVGANNKLAELAKAQHPRILATYGGEYSDPKLERMVAKVVGNLTVVSANPTQTYRITILNSPNVNAFALPGGYLYITRGLLALANDSSELAAVIAHEMGHVTANHGLQRQQLEAEEGLATKVVSDVLGDSPTAKAALIRGKLRLAQFSRNQELEADAIGIKSIGEAGYDPYAAGRFLQSMSAYTDFRSISGATDASLDFLATHPNTPQRIDLAQRHARQFGAPGVGTRDRDSFLAGIDGLLYGDTPEEGYVRGETFLHPGLGVSFTVPDGFIIDNSAAAVTATGPGDIAIRFDGVSIDKNRALTDYIRSGWVAGLDDSTVKQETINGNEAATAHAGAEGWQFDIAVIRAGGQVYRLLTAAPSASTSLETVARSVSGSFRVLSAAEKAALKPLHIRVLTVQPGQTMGSLAAQMVGVDRKLDLFRVLNALSPGAAVSAGDKVKIVTDK | failed
18 | MKEITIALVGQPNVGKSSLINALSNAHLKVGNFAGVTVDKMEVGLIHKEHQITIIDLPGTYALNDFTTEEKVTKDFLEKGQYDLILNVVDSTNLERNLALSAQLLDTNKKMLLALNMWDEAQKEGIKINTEKLSKELGVVCVPTSARSKEDRLNTELLLDEIVRLYSQNTTNNENIKVPSQSFKESLKYSQSAQRIAQLVISENQQNASFEHTYKIDKILMHKRYGIFIFLGFMFIIFSLSFLIGGGVQKALETGFKFLSDGIKENVANEDLASLVGDGIIGGVGATVSFLPLIVVLYFGISLLETTGYMSRVAFLLDGILHKFGLHGKSFIPLITGFGCSVPAYMATRTLQNYNERLITLFVIGFMSCSARLPIYVLFVGSFFPSSSAGFVLFCIYILGAVVALVMAKLLKLSVFKGQTESFIMEMPKYRFPSWRMVYFSIYTKSLSYLKKAGTYILVGAILIWFMSQYPKSDAAMKAYKQESLLVNKDTTLSSEAKEEKLKELKTELDKKNLKNSIVGRGGAYLEKVFSPMDFDWRLSVSLVTGFMAKEVVVSTLGVLFSLGDQNEKSDAFRGILRKEVSVPSGIAFIVFVMFYIPCFAATITFGREAGGIKFVAYLFIFTTVVAYAFSLIAFYATQILV | failed
19 | MPELKVVVSIKQVPDVDELRIDPVTNNLVREGVPAVINPPDLHAIEEAVRLKERYGAKTIVITMGPPQADSALREALAMGIDEAYLISDRAMAGADTWATSYTISKAVQKLGGADLILFGRRAVDGETEQVGPQTGKWLGLPVIGYVSEIKSLEKDKIVVTRTTEFDEEVIEAPVPVVLTILEVANKPRQPDILSLIKAKTAKVTVWNKDDIKAEPNKIGLAGSPTKVIKVQPPPKTRKAEIIDGKKDVEKAAKWFLDKIFESLKE | failed
20 | MQTSNITNHERNDSSWMSTVKSTTEVSWNKLSFCDILLKIITFGIYSPHETLAEKHSEKKLMDSFSPSLSQDKMDGEFAHANIDGISIRLCLNKGICSVFYLDGDKIQSTQLSSKEYNNLLSSLPPKQFNLGKVHTITAPVSGNFKTHKPAPEVIETAINCCTSIIPNDDYFHVKDTDFNSVWHDIYRDIRASDSNSTKIYFNNIEIPLKLIADLINELGINEFIDSKKELQMLSYNQVNKIINSNFPQQDLCFQTEKLLFTSLFQDPAFISALTSAFWQSLHITSSSVEHIYAQIMSENIENRLNFMPEQRVINNCGHIIKINAVVPKNDTAISASGGRAYEVSSSILPSHITCNGVGINKIETSYLVHAGTLPSSEGLRNAIPPESRQVSFAIISPDV | not failed
